“Also recorded” adds a separate entry of the source.
Legend:
E. coli RecO [1] = experiment: ITC of SSB-Ct peptides binding to RecO; set-up: species or system Escherichia coli; settings: 25°C
Procedure: (§1) The concentrations were determined thereafter.

DNA Pol III (χ) [2] = experiment: ITC of SSB-Ct peptides binding to the χ subunit; set-up: species or system Escherichia coli; settings: pH 8.0, 50 mM NaCl, 25°C; N fixed to 1
Procedure: as §1

PriC = experiment: ITC of SSB-Ct peptides binding to PriC; set-up: species or system Escherichia coli; settings: 25°C
Procedure: as §1

PriA [3] = settings: pH 8.0, 50 mM NaCl, 25°C; N fixed to 1
Procedure: (§8) Isothermal titration calorimetry (ITC) experiments were performed using a VP-ITC titration microcalorimeter (Malvern Panalytical, Malvern, UK) ([68]). All proteins and oligonucleotides were dialyzed extensively against the indicated buffer and cleared by centrifugation at 14 000 rpm for 15 min at 4°C. The concentrations were determined thereafter. For experiments with the SSB-Ct peptides and SIPs, 40–50 μM peptides were titrated into 1–2 μM SIPs in Buffer BTP at pH 8.0 and 50 mM NaCl. For experiments with the full-length SSB and its deletion mutants and SIPs, SSB tetramer (8–10 μM) was titrated into SIP (1 μM) in Buffer BTP at pH 7.0 and 200 mM NaCl. The heats of dilution were obtained by blank titrations in which the titrant species is titrated into the buffer, and corrections for heats of dilution were applied.
The raw data were analyzed to obtain titration curves by integrating each peak from the time of titrant addition until equilibration back to the baseline using ‘MicroCal Data Analysis’ software provided by the manufacturer. […] The concentration of the free ligand (X) was obtained by solving Equation (2).(2)
In Equations (1) and (2), and are the total concentrations of the ligand and macromolecule, respectively, in the calorimetric cell after ith injection and X is the free ligand concentration. Nonlinear least-squares fitting of the data was performed using the same software. […]

PriA [4] = settings: previous study; cited from earlier work
Procedure: All binding reactions were performed under identical solution conditions, although additional experiments were performed at a lower [NaCl] for PriC as indicated, ...

DNA Pol III (χ) [5] = settings: previous study; cited from earlier work
Description: When DNA is bound to the DBD, the acidic tip no longer interacts with the DBD and thus is more available to interact with a SIP. This is supported by the observation that ΔH = −6.0 ± 0.1 kcal/mol for RecO binding to the SSBΔ120-166–(dT)70 complex, which should not contain contributions from the acidic tip-DBD intramolecular interactions.

E. coli RecO [6] = experiment: ITC of SSB tetramers (apo) binding to RecO; set-up: species or system Escherichia coli; settings: absence of ssDNA, BTP pH 7.0, 200 mM NaCl, 15°C and 25°C
Procedure: as §1

χ = experiment: ITC of SSB-A binding to χ; set-up: species or system Escherichia coli; settings: Buffer T pH 8.1, 200 mM NaCl, 25°C
Procedure: (§2) The concentrations were determined thereafter. […]
(§3) Figure S7. Results from various control ITC titrations of (a) SSB-A and RecO at 15°C and (b) 25°C, (c) SSB-A and c, (d) P65 and (dT)70, (e) (dT)70 and SSB-A, and (f) (dT)70 and wtSSB. (a) SSB-A (10 µM), a homo-tetrameric SSB variant containing an additional six amino acids, TGASGT, at the C-terminus of each subunit, was titrated into […]
(§4) (5.9 µM) was titrated into c (1 µM) in buffer T (10 mM Tris-HCl, pH 8.1, 200 mM NaCl, […]
(§5) 0.1 mM EDTA) at 25° C. […] (d) dT70 (60 µM) was […]
(§6) titrated into P65 (2 µM) in buffer BTP (pH 7.0, 20 mM NaCl) at 25° C. P65, the full-length […]
(§7) (dT)70. (e) (dT)70 (15 µM) was titrated into SSB-A (1 µM) in buffer T at 25° C. SSB-A (also on this page, place not known: 15°C 25°C. 25°C. 25°C. 25°C. 2.00 kcal mol-1 of injectant kcal mol-1 of injectant [SSB-A]tot/[RecO]tot kcal mol-1 of injectant [SSB-A]tot/[c]tot (f)(d))

(dT)70 [7] = experiment: ITC of SSB tetramers with (dT)70; format: binding; settings: Buffer T pH 8.1, 200 mM NaCl, 25°C
Procedure: as §8
RecO (1 µM) in buffer BTP (pH 7.0, 200 mM NaCl) at 15° C and (b) 25° C.
(f) (dT)70 (15 µM) is titrated into

[8] = target: P65 (SSB C-terminal peptide) (Escherichia coli, UniProt P0AGE0 114-178); experiment: ITC; no detectable interaction; ITC; buffer BTP (20 mM Bis-Tris propane, 25% v/v glycerol, 1 mM TCEP), pH 7.0, 200 mM NaCl, 25 C for SSB experiments; buffer/pH of individual (dT)70 titrations; settings: single-stranded
SSB (wtSSB) = SSB (wtSSB) (Escherichia coli, UniProt P0AGE0 2-178); experiment: ITC; 1:1 complex at 200 mM NaCl, (SSB)65 mode; (dT)70 (15 uM) titrated with SSB; ITC; buffer BTP (20 mM Bis-Tris propane, 25% v/v glycerol, 1 mM TCEP), pH 7.0, 200 mM NaCl, 25 C for SSB experiments; buffer/pH of individual (dT)70 titrations; settings: protein: recombinant; chain copies: 4; single-stranded
SSB-A = SSB-A (Escherichia coli, UniProt P0AGE0 2-178+=TGASGT, internal_change); experiment: ITC; (dT)70 titrated with SSB-A; stoichiometric binding, 1:1; dH similar to wtSSB (-131 kcal/mol in earlier work); ITC; buffer BTP (20 mM Bis-Tris propane, 25% v/v glycerol, 1 mM TCEP), pH 7.0, 200 mM NaCl, 25 C for SSB experiments; buffer/pH of individual (dT)70 titrations; settings: protein: recombinant; chain copies: 4; single-stranded
[9] = target: T1, Escherichia coli RecO protein (E. coli, UniProt P0A7H3 1-242); experiment: ITC; P15 and RecO; buffer BTP pH 8, 200 mM NaCl, 25°C; N fixed to 1; settings: both partners purified
T1 construct: E. coli RecO, recombination mediator of the RecF pathway; source: E. coli BL21(DE3)pLysS, plasmid pMCSG7, purified (Ni-NTA, HiTrap Heparin HP) after His-tag cleavage with TEV protease
T1 sequence (looked up): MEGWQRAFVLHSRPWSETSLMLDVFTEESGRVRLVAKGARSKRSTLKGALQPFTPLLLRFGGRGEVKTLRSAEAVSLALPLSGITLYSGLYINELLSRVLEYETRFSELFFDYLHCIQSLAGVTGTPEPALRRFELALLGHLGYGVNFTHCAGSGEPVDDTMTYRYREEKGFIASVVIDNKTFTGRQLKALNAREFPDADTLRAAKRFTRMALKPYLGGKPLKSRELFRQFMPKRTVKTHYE

[10] = target: T1, Escherichia coli RecO protein; experiment: ITC; P15 and RecO; buffer BTP pH 7.0, 200 mM NaCl, 15°C; N fixed to 1; settings: both partners purified
[11] = target: T1, Escherichia coli RecO protein; experiment: ITC; P15 and RecO; buffer BTP pH 7.0, 200 mM NaCl, 25°C; N fixed to 1; settings: both partners purified
[12] = target: T1, Escherichia coli RecO protein; experiment: ITC; P15 and RecO; buffer BTP pH 7.0, 200 mM NaCl, 37°C; N fixed to 1; settings: both partners purified
Escherichia coli PriC [13] = target: T2, Escherichia coli PriC (E. coli, UniProt P23862 1-175); experiment: ITC; SSB-Ct peptide titrated into PriC; buffer BTP pH 8.0, 10 mM NaCl, 25°C; N fixed to 1 for the values of Table 1; settings: both partners purified
T2 construct: E. coli PriC, replication restart protein; source: E. coli BL21(DE3), plasmid pET11a-EcoPriC (pAM001), purified (Macro-Prep High S, HiPrep Sephacryl S-200 HR)
T2 sequence (looked up): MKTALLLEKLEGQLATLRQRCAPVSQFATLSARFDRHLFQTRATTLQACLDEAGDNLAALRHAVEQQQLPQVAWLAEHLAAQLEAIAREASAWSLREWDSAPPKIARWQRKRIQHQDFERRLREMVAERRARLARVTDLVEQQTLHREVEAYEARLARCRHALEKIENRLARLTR

Escherichia coli PriC [14] = target: T2, Escherichia coli PriC; experiment: as above; settings: both partners purified; remark: listed apart in the source
[15] = target: T1, Escherichia coli RecO protein; experiment: ITC; SSB-Ct peptide (40–50 μM) titrated into SIP (1–2 μM); buffer BTP (20 mM Bis-Tris Propane, 25% glycerol, 1 mM TCEP) pH 8.0, 50 mM NaCl, 25°C; observed association constants; N fixed to 1 for the values of Table 1; settings: both partners purified
Escherichia coli PriA [16] = target: T3, Escherichia coli PriA (E. coli, UniProt P17888 1-732); experiment: as above; settings: both partners purified
T3 construct: E. coli PriA, replication restart protein

[17] = target: T4, chi (χ) subunit of DNA polymerase III (E. coli, UniProt P28905 1-147); experiment: as above; settings: both partners purified
T4 construct: E. coli DNA polymerase III chi subunit; also called χ protein; DNA Pol III (χ)

[18] = target: T1, Escherichia coli RecO protein; experiment: as above; settings: both partners purified; remark: listed apart in the source
Escherichia coli PriA [19] = target: T3, Escherichia coli PriA; experiment: as above; settings: both partners purified; remark: listed apart in the source
[20] = target: T4, chi (χ) subunit of DNA polymerase III; experiment: as above; settings: both partners purified; remark: listed apart in the source
(dT)70 [21] = experiment: ITC control of P65 peptide and (dT)70; format: binding; settings: BTP pH 7.0, 20 mM NaCl, 25°C
Procedure: as §2, §3, §4, §5, §6, §7

P15: SSB-Ct peptide, C-terminal 15 amino acids of E. coli SSB, contains acidic tip, no PXXP motifs (PSNEPPMDFDDDIPF)
K (E. coli RecO [1]; BTP pH 7, 200 mM NaCl): (1.1 ± 0.1) × 10^6 M^−1 | K (equilibrium binding constant) (E. coli RecO [1]; pH 8.0, 50 mM NaCl, N fixed to 1): (1.2 ± 0.3) × 10^7 M^−1 | K (equilibrium binding constant) (DNA Pol III (χ) [2]): (3.0 ± 0.1) × 10^5 M^−1 | K (equilibrium binding constant) (PriC; pH 8.0, 10 mM NaCl, N fixed to 1): (1.6 ± 0.1) × 10^6 M^−1 | binding detected by ITC (PriC; pH 8.0, 50 mM NaCl): undetectable; also recorded: showed no binding | K (equilibrium binding constant) (PriA [3]): (2.6 ± 0.1) × 10^5 M^−1 | binding to PriA (PriA [4]): same affinity as P9 | binding to χ (DNA Pol III (χ) [5]): same affinity as P9

SSB-A: additional six amino acids, TGASGT, extending the C-terminus of wtSSB
binding to RecO by ITC (E. coli RecO [6]): not interact with RecO; also recorded: eliminates binding to RecO | binding to χ by ITC (χ): does not show binding | binding to (dT)70 by ITC ((dT)70 [7]): binds stoichiometrically

B1: (dT)70 (ssDNA)
DNA: TTTTTTTTTTTTTTTTTTTTTTTTTTTTTTTTTTTTTTTTTTTTTTTTTTTTTTTTTTTTTTTTTTTTTT
binding result [8]: no binding | binding result (SSB (wtSSB)): binds | binding result (SSB-A): binds

B2: SSB-Ct peptide P15 (C-terminal 15 amino acids of E. coli SSB) (peptide, UniProt P0AGE0 164-178, looked up)
peptide: PSNEPPMDFDDDIPF
notes: E. coli SSB, the C-terminal 15 amino acids; Holds none of the PXXP motifs; also called acidic tip peptide; source: synthetic peptide; bought: WatsonBio
dH [9]: -3.9 ± 0.1 kcal/mol | dH [10]: -2.4 ± 0.2 kcal/mol | dH [11]: -6 ± 0.2 kcal/mol | dH [12]: -7.8 ± 0.8 kcal/mol | stoichiometry N (Escherichia coli PriC [13]): 1 | dH (Escherichia coli PriC [14]): -2.7 ± 0.1 kcal/mol | stoichiometry N [15]: 1 | stoichiometry N (Escherichia coli PriA [16]): 1 | stoichiometry N [17]: 1 | dH [18]: -5.2 ± 0.1 kcal/mol | dH (Escherichia coli PriA [19]): -9.6 ± 0.3 kcal/mol | dH [20]: -9.3 ± 0.1 kcal/mol

B3: P65: SSB-Ct peptide, C-terminal 65 amino acids of SSB; acidic tip and the full IDL (peptide)
peptide: GGRQGGGAPAGGNIGGGQPQGGWGQPQQPQGGNQFSGGAQSRPQQSAPAAPSNEPPMDFDDDIPF
binding to (dT)70 by ITC ((dT)70 [21]): does not interact; also recorded: no detectable interaction
